The results in this text go back to article PMC8985661.

The target of test [1] is microtubules (MTs; α-tubulin/β-tubulin) (UniProt P02554). Kind of test: other fluorescence titration; fluorescently labeled MAP7 on MTs at different concentrations, fluorescence intensity fit to the Hill equation; 150 mM KAc.
Test [2] shares this target.

Broadly, the Kd is the equilibrium constant for the complex coming apart. A low value points to a tighter complex. As for “full-length (FL) MAP7 (from UniProt Q14244 1-749) (natural protein)”, the Kd in test [1] came to 111 nM. The substance also showed a half-max inhibition constant of the run frequency of dynein-dynactin-BicDR1 (DDR) on MTs against MAP7 concentration (blocks dynein on MTs); 150 mM KAc in test [2] of 10 nM.
